{"source": "paper PMC4613515", "target": "His6–WT cyclin Y (Sf21) (human) (UniProt Q8ND76)", "sequence (Q8ND76 whole entry)": "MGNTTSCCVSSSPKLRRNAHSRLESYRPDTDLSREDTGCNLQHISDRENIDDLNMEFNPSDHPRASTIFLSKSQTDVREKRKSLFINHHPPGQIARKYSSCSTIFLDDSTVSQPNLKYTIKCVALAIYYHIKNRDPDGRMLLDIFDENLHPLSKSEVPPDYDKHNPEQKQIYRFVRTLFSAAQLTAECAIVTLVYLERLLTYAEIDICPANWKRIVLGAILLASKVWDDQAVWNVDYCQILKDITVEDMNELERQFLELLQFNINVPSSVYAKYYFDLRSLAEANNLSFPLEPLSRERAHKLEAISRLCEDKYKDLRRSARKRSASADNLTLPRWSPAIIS", "test": "co-purification on Ni-NTA–agarose, immunoblot; His6–cyclin Y (WT or S326A) expressed in Sf21 cells and affinity-purified; defined amounts immunoblotted for 14-3-3", "data": [{"substance": "14-3-3 proteins (endogenous in Sf21 cells) (natural protein)", "values": [{"measurement": "amount of co-purified 14-3-3 against that with COS-1-derived WT cyclin Y", "value": 100, "unit": "fold less"}]}]}
